Target: toripalimab Fab, wild type
Test: SPR; Carterra LSA; Fab from the ammonium sulfate precipitate of the culture supernatant immobilised on a NiHC200M chip; hPD-1 (1-1024 nM) or mPD-1-Fc (4-1024 nM) as analyte, fourfold dilution series, no regeneration; HBS-EP pH 7.4, 25 °C; medians over the spots of a construct, KD = koff/kon

mouse programmed cell death protein 1 Fc fusion protein (mPD-1-Fc), mPD-1 C60S (aa 25-167), sequence (Q02242 25-167, stated change not applied): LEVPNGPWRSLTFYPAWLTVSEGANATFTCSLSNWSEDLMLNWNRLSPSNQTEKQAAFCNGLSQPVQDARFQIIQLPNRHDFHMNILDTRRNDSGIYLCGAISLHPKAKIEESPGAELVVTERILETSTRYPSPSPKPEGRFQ
toripalimab Fab, wild type, sequence (heavy, as listed by the source, chain 1 of 2): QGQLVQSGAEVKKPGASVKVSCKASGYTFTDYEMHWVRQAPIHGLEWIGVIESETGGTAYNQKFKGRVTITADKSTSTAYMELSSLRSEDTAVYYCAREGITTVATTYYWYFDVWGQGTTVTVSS
toripalimab Fab, wild type, sequence (light, as listed by the source, chain 2 of 2): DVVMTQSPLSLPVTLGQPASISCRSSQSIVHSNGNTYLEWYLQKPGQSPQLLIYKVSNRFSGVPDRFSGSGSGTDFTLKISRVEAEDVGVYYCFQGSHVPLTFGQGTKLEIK

Substance “mouse programmed cell death protein 1 Fc fusion protein (mPD-1-Fc), mPD-1 C60S (aa 25-167) (from UniProt Q02242 25-167)” has a Kd of 136 nM, a koff of 0.00548 s⁻¹ and a kon of 40300 M⁻¹ s⁻¹.

Reference: PMC10663500
